The values that follow come from patent US20140255408A1 (Janssen / Centocor, published 2014).

For assay [1], the target named is T1, recombinant human extracellular domain of EGFR fused to an IgG1 Fc (human, UniProt P00533 25-645).
T1 construct: Bought from R&D Systems; The residues are stated for the panning reagent; also called EGFR-Fc; EGF R-Fc; not shown: IgG1 Fc
The experiment in a line: affinity printed beside the clone name; SPR on EGFR-Fc taken as the method.

In assay [2] the target is T2, human EGFR on cells (human, UniProt P00533 25-1210). The experiment in a line: cell-based or functional assay.
The target of assay [3] is T2, human EGFR on cells. The experiment in a line: A431 cell binding assay, anti-penta-His-Alexa488 detection.
For assay [4], the target named is T2, human EGFR on cells. Nature of the assay: A431 cell EGF competition assay, competitor biotinylated EGF.
For assay [5], the target named is T1, recombinant human extracellular domain …. The experiment in a line: SPR (ProteOn), EGFR-Fc captured on anti-human Fc IgG, FN3 domain as analyte. The method, then:
Select EGFR-binding FN3 domains were screened to identify those with slow off-rates (koff) in binding to EGFR-Fc on a ProteOn XPR-36 instrument (Bio-Rad) to facilitate selection of high affinity binders. Goat anti-human Fc IgG (R&D systems), at a concentration of 5 μg/mL, was directly immobilized via amine coupling (at pH 5.0) on all 6 ligand channels in horizontal orientation on the chip with a flow rate of 30 μL/min in PBS containing 0.005% Tween-20. The immobilization densities averaged about 1500 Response Units (RU) with less than 5% variation among different channels. EGFR-Fc was captured on the anti-human Fc IgG surface to a density around 600 RU in vertical ligand orientation. All tested FN3 domains were normalized to a concentration of […] and tested for their binding in horizontal orientation. All 6 analyte channels were used for the FN3 domains to maximize screening throughput. The dissociation phase was monitored for 10 minutes at a flow rate of 100 μL/min. The inter-spot binding signals were used as references to monitor non-specific binding between analytes and the immobilized IgG surface, and were subtracted from all binding responses. The processed binding data were locally fit to a 1:1 simple Langmuir binding model to extract the koff for each FN3 domain binding to captured EGFR-Fc.
Binding affinity of selected EGFR-binding FN3 domains to recombinant EGFR extracellular domain was further characterized by surface Plasmon resonance methods using a Proteon Instrument (BioRad). The assay set-up (chip preparation, EGFR-Fc capture) was similar to that described above for off-rate analysis. Selected EGFR binding FN3 domains were tested at 1 μM concentration in 3-fold dilution series in the horizontal orientation. A buffer sample was also injected to monitor the baseline stability.

The target of assay [6] is T3, human c-Met on cells (human, UniProt P08581 25-1390). The experiment in a line: cell-based or functional assay.
In assay [7] the target is T3, human c-Met on cells. Nature of the assay: cell-based or functional assay. This is another data set of the same source.
For assay [8], the target named is T3, human c-Met on cells. Nature of the assay: H441 cell binding assay, anti-His detection. The method, then:
(§1) Purified FN3 domains (50 μL/well; 0 to 1000 nM) were added to the cells for 1 hour at 4° C. in duplicate plates. […] Cells were incubated with biotinylated-anti HIS antibody (diluted 1:160 in FACS stain buffer, 50 μL/well, R&D Systems, cat #BAM050) for 30 minutes at 4° C. […] Cells were washed three times with FACS stain buffer (150 μL/well) and left in FACS stain buffer (50 μL/well).

For assay [9], the target named is T4, Recombinant human c-Met Fc chimera (human, UniProt P08581 16-932).
T4 construct: not shown: Fc part
The experiment in a line: HGF competition assay on coated c-Met-Fc, competitor biotinylated HGF.

The target of assay [10] is T4, Recombinant human c-Met Fc chimera. Nature of the assay: SPR (ProteOn), c-Met-Fc captured on anti-human Fc IgG, FN3 domain as analyte.
Assay [11] deals with T3, human c-Met on cells. The experiment in a line: H441 cell binding assay (assay for c-Met binding). The method, then:
as §1

Assay [12] concerns the target human c-Met extracellular domain (human, UniProt P08581 16-932). Nature of the assay: MSD plate competition assay, competitor biotinylated HGF at 10 nM. As for the experimental part: MSD Blocker A buffer (Meso Scale Discovery, Gaithersburg, Md.) was added to each well and incubated for 2 hr at room temperature. […] After 2-hour incubation with gentle shaking at room temperature, the plates were washed 3 times with 0.1M HEPES buffer (pH 7.4). MSD Read Buffer T was diluted and dispensed and the signals were analyzed with a SECTOR Imager 6000.

For assay [13], the target named is T2, human EGFR on cells. The experiment in a line: A431 cell EGF competition assay, competitor biotinylated EGF; A431 cell EGF competition assay: displaces EGF from EGFR on A431 cells.
The target in assay [14] is T2, human EGFR on cells. The experiment in a line: A431 cell binding assay (assay for EGFR binding).

Numbering of substitutions follows the chain as printed. Names and notes keep the numbering of the source.

B1: P53A1R5-17v2 (designed binder, not shown: small tags and cut ends)
chain: LPAPKNLVVSEVTEDSARLSWADPHGFYDSFLIQYQESEKVGEAIVLTVPGSERSYDLTGLKPGTEYTVSIYGVHNVYKDTNMRGLPLSAIFTT
As a reminder, the Kd is the concentration at which binding is half-saturated. Take B1: the Kd in assay [1] turned out to be 1.9 nM.

B2: P54AR4-83 (designed binder, not shown: small tags and cut ends)
chain: B1 chain with A17L, A22D, H25W, G26A, D29E, V46N, I91E
What is called EC50 is the concentration needed to bring the measured effect to its halfway point. A high value points to lower potency in that assay. One may read the IC50 as the concentration at which inhibition is half-maximal. In the case of B2, in the assay with human EGFR on cells [2], the “NCI-H292 Growth IC50” value stood at 5.9 nM, the “NCI-H322 Growth IC50” value amounted to 9.2 nM and the “Phospho-EGFR IC50 (A431 cells)” value was found to be 18 nM. In the assay with human EGFR on cells [3], this molecule showed an EC50 of 2.2 nM. In the assay with human EGFR on cells [4], this molecule had an IC50 of 1.8 nM. Further, the Kd in assay [5] was found to be 0.255 nM.

B3: P114AR5P74-A5 (designed binder, not shown: small tags and cut ends)
chain: LPAPKNLVVSRVTEDSARLSWTAPDAAFDSFWIRYDEVVVGGEAIVLTVPGSERSYDLTGLKPGTEYYVNILGVKGGSISVPLSAIFTT
As to B3, the “inhibition of c-Met phosphorylation in HGF-stimulated NCI-H292 cells (IC50)” value with human c-Met on cells [6] turned out to be 610 nM. For the same molecule, in the assay with human c-Met on cells [7], the “Inhibition of Proliferation of U87-MG cells (IC50)” value amounted to 464 nM and the “pMet inhibition in H441 cells (IC50)” value turned out to be 1080 nM. Besides, the 50% effective concentration (EC50) in the assay with human c-Met on cells [8] was found to be 18.7 nM. In assay [9], the IC50 was determined as 5.2 nM. Besides, the Kd in [10] came to 10.1 nM.

B4: parental bivalent anti-c-Met antibody M1-K409R (antibody, human IgG1, kappa, V domains shown)
VH: QVQLVQSGAEVKKPGASVKVSCETSGYTFTSYGISWVRQAPGHGLEWMGWISAYNGYTNYAQKLQGRVTMTTDTSTSTAYMELRSLRSDDTAVYYCARDLRGTNYFDYWGQGTLVTVSS
VL: DIQMTQSPSSVSASVGDRVTITCRASQGISNWLAWFQHKPGKAPKLLIYAASSLLSGVPSRFSGSGSGTDFTLTISSLQPEDFATYYCQQANSFPITFGQGTRLEIKR
notes: also called parental bivalent antibody; Parental mAbs
B4 displayed an EC50 in the assay with human c-Met on cells [11] of 0.65 nM. Moreover, the IC50 in assay [12] came to 14.8 nM.

B5: P54CR4-31 (designed binder, not shown: small tags and cut ends)
chain: LPAPKNLVVSEVTEDSLRLSWTAPDAAFDSFLIQYQESEKVGEAINLTVPGSERSYDLTGLKPGTEYTVSIYGVLGSYVFEHDVMLPLSAEFTT
As to B5, in the assay with human EGFR on cells [2], the “NCI-H292 Growth IC50” value turned out to be 1150 nM, the “NCI-H322 Growth IC50” value is > 3070 nM and the “Phospho-EGFR IC50 (A431 cells)” value is 179 nM. For the same molecule, the Kd in [5] was 0.383 nM. Besides, in the assay with human EGFR on cells [13], the IC50 stood at 55 nM.

B6: control monovalent anti-cMet mAb M1-K409R-gp120-F405L (bispecific antibody, human IgG1, kappa)
heavy 1: not shown
light 1: DIQMTQSPSSVSASVGDRVTITCRASQGISNWLAWFQHKPGKAPKLLIYAASSLLSGVPSRFSGSGSGTDFTLTISSLQPEDFATYYCQQANSFPITFGQGTRLEIKRTVAAPSVFIFPPSDEQLKSGTASVVCLLNNFYPREAKVQWKVDNALQSGNSQESVTEQDSKDSTYSLSSTLTLSKADYEKHKVYACEVTHQGLSSPVTKSFNRGEC
heavy 2: not shown
light 2: EIVLTQSPGTLSLSPGERATFSCRSSHSIRSRRVAWYQHKPGQAPRLVIHGVSNRASGISDRFSGSGSGTDFTLTITRVEPEDFALYYCQVYGASSYTFGQGTKLERKRTVAAPSVFIFPPSDEQLKSGTASVVCLLNNFYPREAKVQWKVDNALQSGNSQESVTEQDSKDSTYSLSSTLTLSKADYEKHKVYACEVTHQGLSSPVTKSFNRGEC
notes: also called M1-K409R-120-F405L
On to B6, for which the “inhibition of ligand-induced c-Met phosphorylation in H292 cells (IC50)” value with human c-Met on cells [6] is 4.05 nM. The same molecule had an EC50 with human c-Met on cells [11] of 1 nM.

B7: control monovalent anti-EGFR mAb E1-F405L-gp120-K409R (bispecific antibody, human IgG1, kappa)
heavy 1: not shown
light 1: not shown
heavy 2: not shown
light 2: B6 light 2
notes: also called E1-F405L-120-K409R
Molecule B7 returned an EC50 with human EGFR on cells [14] of 10.1 nM.
